Results as given in article PMC6879014, “Biophysical screening methods for extracellular domain peptide receptors, application to natriuretic peptide receptor C ligands” (Chemical Biology & Drug Design, 2018).
“And” between values parts separate entries of the source, which are not always exact repeats. Equal values may be shown once. Bridge positions count the residues as written; N and C are the ends. Ends that are not written are not given here. * marks the point of attachment. 5FAM = O=C1OC2(c3ccc(O)cc3Oc3cc(O)ccc32)c2ccc(C(=O)*)cc21

What was measured:
[1] = molecular target: T1, Human full‐length (FL) NPR‐C (27–541)‐10His‐Flag (Homo sapiens, UniProt P17342); test: Surface plasmon resonance, immobilized full‐length NPR‐C; type: binding; conditions: SPR, experimentally observed R max as percentage of theoretical R max (quality control), each table line a separate run
T1 construct: Human full‐length (FL) NPR‐C (27–541)‐10His‐Flag; 10His (C); Flag (C); purchased Peak Proteins, UK
T1 sequence (P17342 27-541): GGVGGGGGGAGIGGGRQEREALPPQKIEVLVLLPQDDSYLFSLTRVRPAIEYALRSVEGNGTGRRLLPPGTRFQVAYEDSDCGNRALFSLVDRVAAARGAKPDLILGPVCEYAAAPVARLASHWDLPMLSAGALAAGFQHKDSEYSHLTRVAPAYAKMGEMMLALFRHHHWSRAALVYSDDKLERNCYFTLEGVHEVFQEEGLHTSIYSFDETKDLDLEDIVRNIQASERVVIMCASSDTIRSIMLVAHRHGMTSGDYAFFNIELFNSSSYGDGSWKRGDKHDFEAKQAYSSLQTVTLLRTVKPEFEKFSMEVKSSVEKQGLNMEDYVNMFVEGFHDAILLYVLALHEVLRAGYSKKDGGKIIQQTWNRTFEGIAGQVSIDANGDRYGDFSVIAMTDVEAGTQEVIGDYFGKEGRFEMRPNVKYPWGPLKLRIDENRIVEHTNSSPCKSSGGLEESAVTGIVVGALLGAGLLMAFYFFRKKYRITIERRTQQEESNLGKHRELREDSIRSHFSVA

[2] = molecular target: T2, extracellular domain (ECD) NPR‐C (27–481)‐6His (Homo sapiens, UniProt P17342); test: Surface plasmon resonance, immobilized extracellular domain NPR‐C; type: binding; conditions: SPR, experimentally observed R max as percentage of theoretical R max (quality control), each table line a separate run
T2 construct: extracellular domain (ECD) NPR‐C (27–481)‐6His; 6His (C); purchased Peak Proteins, UK
T2 sequence (P17342 27-481): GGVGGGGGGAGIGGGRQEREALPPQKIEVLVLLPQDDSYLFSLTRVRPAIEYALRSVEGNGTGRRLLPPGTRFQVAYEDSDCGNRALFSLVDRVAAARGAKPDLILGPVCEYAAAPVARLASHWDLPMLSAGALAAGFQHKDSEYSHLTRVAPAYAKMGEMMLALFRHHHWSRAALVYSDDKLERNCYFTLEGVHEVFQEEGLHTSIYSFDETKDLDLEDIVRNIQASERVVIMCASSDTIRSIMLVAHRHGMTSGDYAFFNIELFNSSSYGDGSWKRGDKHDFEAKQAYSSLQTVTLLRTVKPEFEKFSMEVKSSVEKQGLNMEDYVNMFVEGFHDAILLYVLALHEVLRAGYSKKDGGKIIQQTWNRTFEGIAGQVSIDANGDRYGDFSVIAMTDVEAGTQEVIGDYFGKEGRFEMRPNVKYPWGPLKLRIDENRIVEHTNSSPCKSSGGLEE

NPR‐C = conditions: literature value in Table 2; read-out: K i, literature; cited from earlier work
Source text: Table 2 Summary of control peptide FP analyses | column: K i (competitive; nM)

FL NPR‐C = molecular target: T3, FL NPR‐C (Homo sapiens, UniProt P17342); test: Thermal shift assay (Protein Thermal Shift Dye Kit); type: binding; conditions: for ΔTm: FL NPR‐C 0.1 mg/ml, 1× dye, ramp 25–99°C, T m mean across four replicates
T3 construct: Human full‐length (FL) NPR‐C (27–541)‐10His‐Flag; 10His (C); Flag (C); purchased Peak Proteins, UK
T3 sequence (P17342 27-541): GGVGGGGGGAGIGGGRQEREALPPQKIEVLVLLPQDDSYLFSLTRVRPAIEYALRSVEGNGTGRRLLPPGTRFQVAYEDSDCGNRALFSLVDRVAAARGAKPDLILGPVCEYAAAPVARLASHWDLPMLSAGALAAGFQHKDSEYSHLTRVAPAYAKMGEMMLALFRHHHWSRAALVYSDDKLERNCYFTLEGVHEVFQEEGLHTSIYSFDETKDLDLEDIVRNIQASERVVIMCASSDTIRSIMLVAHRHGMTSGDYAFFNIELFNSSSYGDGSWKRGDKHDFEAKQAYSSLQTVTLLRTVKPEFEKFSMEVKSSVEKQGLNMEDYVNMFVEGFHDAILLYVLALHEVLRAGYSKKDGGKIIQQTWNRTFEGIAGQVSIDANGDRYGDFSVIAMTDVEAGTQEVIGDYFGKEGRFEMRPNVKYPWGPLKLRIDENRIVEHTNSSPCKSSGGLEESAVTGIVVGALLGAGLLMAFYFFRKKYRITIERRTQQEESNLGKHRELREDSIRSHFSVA
Protocol: Thermal shift assays were performed using Thermo Fisher Scientific Protein Thermal Shift™ Dye Kit, and samples were prepared according to the accompanying protocol.17 A solution of Protein Thermal Shift™ Dye was always prepared fresh from the 1,000× stock. Optimization experiments were performed by titrating NPR‐C protein (0.1, 0.05 and 0.01 mg/ml) and Protein Thermal Shift™ Dye concentration (80, 8 and 1×) to identify conditions that achieved melt curves with the greatest dynamic fluorescence range and least standard error in T m (melt temperature) values. […] The total volume for each reaction was 20.0 μl. Each melt reaction was mixed at least 10 times, and the plate was sealed with MicroAmp® Optical Adhesive Film. The plate was then spun it at 112 g for 1 min and placed on ice until measurement. Thermal melt reactions were performed and analysed using a 7500 Real‐Time PCR System®. A 5‐carboxy‐X‐rhodamine (ROX) reporter and a continuous temperature ramp of 25–99°C were used (2 min per step). Optical filters were set at 580 nm (excitation) and 623 nm (emission). The T m for each sample was obtained by differentiating the original fluorescence melt curve using OriginPro mathematical and peak identification functions. The reported T m values are the mean across four replicates.

[3] = molecular target: T4, Human full-length (FL) NPR-C (27–541)-10His-Flag (human, UniProt P17342-2 27-540); test: fluorescence polarisation; competition against 15 nM Flu-P19 probe; FL NPR-C 150 nM or ECD NPR-C 400 nM; competitor 4.89 nM-2.5 uM; HEPES buffer, 3% DMSO; Ki computed from IC50 with a web-based converter; conditions: both partners purified
T4 construct: natriuretic peptide receptor C (NPR-C), human, residues 27-541; Primarily a disulphide-bonded dimer (~130 kDa) on non-reducing SDS-PAGE; The tag's end is read from the construct's name (27–541)-10His-Flag; also called natriuretic peptide receptor C; natriuretic peptide receptor type-C; source: expressed and isolated at Peak Proteins, UK; not shown: 10His, C-terminal, kept; Flag, C-terminal, kept
T4 sequence (looked up): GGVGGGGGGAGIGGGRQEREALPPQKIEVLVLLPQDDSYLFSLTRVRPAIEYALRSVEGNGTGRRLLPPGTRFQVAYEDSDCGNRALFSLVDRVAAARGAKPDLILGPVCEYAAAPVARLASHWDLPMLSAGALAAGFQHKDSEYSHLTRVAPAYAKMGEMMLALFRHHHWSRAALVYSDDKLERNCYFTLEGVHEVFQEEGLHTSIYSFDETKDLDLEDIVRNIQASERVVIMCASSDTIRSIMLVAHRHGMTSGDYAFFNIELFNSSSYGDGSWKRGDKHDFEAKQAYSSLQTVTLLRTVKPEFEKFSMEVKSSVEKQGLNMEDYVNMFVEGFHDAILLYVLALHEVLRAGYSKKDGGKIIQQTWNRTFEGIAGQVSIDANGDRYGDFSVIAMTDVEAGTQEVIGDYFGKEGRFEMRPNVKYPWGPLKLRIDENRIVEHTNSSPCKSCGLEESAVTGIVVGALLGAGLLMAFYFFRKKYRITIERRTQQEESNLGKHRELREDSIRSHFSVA

[4] = molecular target: T5, extracellular domain (ECD) NPR-C (27–481)-6His (human, UniProt P17342-2 27-481); test: as above; conditions: both partners purified
T5 construct: natriuretic peptide receptor C (NPR-C), human, extracellular domain, residues 27-481; Mainly monomer (~55 kDa) on non-reducing SDS-PAGE; the discussion says ~25% of the molecules are disulphide-bonded; The tag's end is read from the construct's name; also called (27–481)-6His (ECD); extracellular NPR-C; source: expressed and isolated at Peak Proteins, UK; not shown: 6His, C-terminal, kept
T5 sequence (looked up): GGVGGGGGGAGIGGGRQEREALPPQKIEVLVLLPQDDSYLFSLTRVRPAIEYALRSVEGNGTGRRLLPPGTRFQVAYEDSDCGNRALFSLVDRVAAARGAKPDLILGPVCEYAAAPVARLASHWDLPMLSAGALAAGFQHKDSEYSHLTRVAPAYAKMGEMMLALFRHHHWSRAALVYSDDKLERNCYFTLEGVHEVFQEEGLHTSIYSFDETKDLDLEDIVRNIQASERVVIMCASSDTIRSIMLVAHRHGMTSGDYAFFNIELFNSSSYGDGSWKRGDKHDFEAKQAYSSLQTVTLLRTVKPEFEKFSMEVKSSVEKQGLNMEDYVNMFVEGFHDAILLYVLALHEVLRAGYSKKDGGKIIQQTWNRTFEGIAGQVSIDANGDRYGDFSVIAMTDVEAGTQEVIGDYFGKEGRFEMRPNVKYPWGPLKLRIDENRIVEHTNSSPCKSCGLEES

[5] = molecular target: T4, Human full-length (FL) NPR-C …; test: thermal shift; Protein Thermal Shift Dye Kit; FL NPR-C 0.1 mg/ml, 1x dye; ligand at 1:1 or 10:1 ratio to the protein; ramp 25-99°C; Tm mean of four replicates; conditions: both partners purified
[6] = molecular target: T4, Human full-length (FL) NPR-C …; test: fluorescence polarisation; competition against 15 nM Flu-P19 probe; FL NPR-C 150 nM or ECD NPR-C 400 nM; competitor 4.89 nM-2.5 uM; HEPES buffer, 3% DMSO; Ki computed from IC50 with a web-based converter; conditions: both partners purified; remark: listed apart in the source
[7] = molecular target: T4, Human full-length (FL) NPR-C …; test: SPR; steady-state affinity analysis of Flu-P19 on immobilised FL NPR-C; conditions: both partners purified

For C‐type natriuretic peptide [CNP], the “% theoretical R max” value [1] is listed as 31%, the “% theoretical R max” value [2] is listed as 51% and the Ki (NPR‐C) is listed as 0.023 nM. For the same molecule, the “ΔTm, approximate shift given in text” value (FL NPR‐C; FL NPR‐C, ratio not stated in the sentence (Figure 9c,d)) was ~ 11 °C, the ΔTm (FL NPR‐C; NPRC + ligand (1:1)) was “+8.2 °C” and the ΔTm (FL NPR‐C; NPRC + ligand (1:10)) was “+11.7 °C”.

B1: C-type natriuretic peptide (ligand)
chain: GLSKGCFGLKLDRIGSMSGLGC
modifications: disulfide 6-22 (inferred)
With B1 the IC50 [3] was 68.4 nM and 142 nM and 111 nM, the Ki [3] was 0.1 nM and the Ki [4] was 0.1 nM. The ΔTm [5] was ~11 °C, the IC50 [6] was 142 nM and the Ki [6] was 0.49 nM.

B2: 5-carboxyfluorescein N-terminus labelled GLSKG[CFGRSLDRIGSLSGLGC]NS (Flu-P19) (peptide)
peptide: 5FAM-GLSKGCFGRSLDRIGSLSGLGCNS
modifications: not fully specified (bridges); cysteine pairing not given here
notes: P19, a peptide identified by phage display (Deschênes et al., cited); also called Flu-P19 probe; source: synthetic peptide, bought: Peptide Protein Research Ltd, UK
B2 showed a Kd [7] of ~10 nM.
